In data set [1] the target is T1, GlyR3 (Acetivibrio thermocellus, UniProt A3DJ78).
T1 construct: gene Cthe_2808; full gene cloned in pTXB1, expressed in E. coli T7 Express C2566, purified with the IMPACT (intein) system
T1 sequence (A3DJ78 1-345): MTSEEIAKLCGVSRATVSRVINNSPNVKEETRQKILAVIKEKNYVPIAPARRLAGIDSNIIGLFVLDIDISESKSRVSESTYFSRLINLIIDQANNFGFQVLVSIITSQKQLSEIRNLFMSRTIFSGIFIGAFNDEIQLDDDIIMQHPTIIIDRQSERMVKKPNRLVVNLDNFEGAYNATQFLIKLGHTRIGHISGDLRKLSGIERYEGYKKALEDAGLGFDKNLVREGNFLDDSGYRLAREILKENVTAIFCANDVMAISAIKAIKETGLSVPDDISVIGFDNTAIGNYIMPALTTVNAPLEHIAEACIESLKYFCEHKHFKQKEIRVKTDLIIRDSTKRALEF
The data set can be described thus: EMSA, release of GlyR3 from biotin-labelled celC operator DNA (ImageJ). The note with it: GlyR3 150 ng (387 nM); celC DNA 0.2 ng (0.156 nM); laminaribiose 70 μg (100 mM); effector, dissociates repressor from celC site. It counts as binding. In general terms: Mobility shift assays separate free from complexed probe on a gel.

Data set [2] has as its target T2, GlyR3 (Clostridium thermocellum) (UniProt Q9AL35).
T2 sequence: T1 sequence (A3DJ78 1-345)
The experiment in a line: EMSA. The conditions noted are these: LightShift Chemiluminescent EMSA kit, TBE gel; 0.2 ng biotin-DNA (0.156-0.204 nM), GlyR3 150 ng (387 nM) unless titrated; binding buffer salt, pH and ….

The target of data set [3] is T3, GlyR3 (Clostridium thermocellum, UniProt Q9AL35 1-345).
T3 sequence: T1 sequence (A3DJ78 1-345)
The data set can be described thus: EMSA. The conditions noted are these: LightShift Chemiluminescent EMSA kit, TBE gel, 0.2 ng biotin-DNA (0.156-0.204 nM), GlyR3 150 ng (387 nM) unless titrated, binding buffer salt, pH and ….

Data set [4] concerns the target T3, GlyR3. The experiment in a line: competition; 500 ng 18-mer reverses shift of celC probe; LightShift Chemiluminescent EMSA kit, TBE gel; 0.2 ng biotin-DNA (0.156-0.204 nM), GlyR3 150 ng (387 nM) unless titrated; binding buffer salt, pH and temperature not given. The conditions noted are these: protein: recombinant; tags: expressed from pTXB1 (IMPACT intein system, NEB); chain copies: 2; label: unlabeled; blunt.

Data set [5] has as its target T3, GlyR3. The experiment in a line: competition; 500 ng 18-mer reverses shift of manB probe; LightShift Chemiluminescent EMSA kit, TBE gel; 0.2 ng biotin-DNA (0.156-0.204 nM), GlyR3 150 ng (387 nM) unless titrated; binding buffer salt, pH and temperature not given. The conditions noted are these: protein: recombinant; tags: expressed from pTXB1 (IMPACT intein system, NEB); chain copies: 2; label: unlabeled; blunt.

Where [6] appears, read: 387 nM GlyR3, 50 mM laminaribiose.
Where [7] appears, read: 387 nM GlyR3, 100 mM laminaribiose.

The values below come from paper PMC5483248, “The LacI family protein GlyR3 co-regulates the celC operon and manB in Clostridium thermocellum” (Biotechnology for Biofuels, 2017).

Where “and” joins values, the source holds several entries; their conditions need not be identical. Equal values may be shown once.

Regarding `OC[C@H]1O[C@@H](O[C@H]2[C@H](O)[C@@H](CO)OC(O)[C@@H]2O)[C@H](O)[C@@H](O)[C@@H]1O` (stereo partly drawn) [laminaribiose], the “% celC DNA shifted at 100 mM laminaribiose” value on GlyR3 [1] is given as 67%.
On to “CCGAATAAAAACTGGACAGAGAAGAAGAAAACGTGATATAATTAAATTAGAATGAACGCGCGTACATTATTGAATAATCCAGTGTTAAATGGTTTCAGTTTACGATTTCAAATGTTTATATCCAATTTACATTTAAAAACATACAAAACATCAAAAGTATTTAATACCAATATTTAAAACACAATATTTCAGGAGGA (double strand) [celC EMSA fragment]”, for which, in data set [2], the binding entry is given as “binds” and the binding signal was found to be 99 % shifted.
Take “TCGGTGAATGTTGAGGTTGACAAGGAAGGACTTTATGAAATATTCATCTGCTATGTGCAGCCTTACGACAAAAACAAAAAAGTGCAGTATCTTAATGTAAACGGTGTCAATCAGGGAGAAATAAGCTTTCCGTTTACTCTTAAATGGAGAGAGATTTCAGCAGGA (double strand) [manB EMSA fragment]”: in data set [2], the binding entry is given as “binds more weakly”; the binding signal was 18 % shifted (2×) and 19 % shifted.
Turning to “TGAGCAAATCAATTGTAATATGAAGAAAAATATAGTAAGATATTAATAAAAGAATAAAATAATATATTGGTATAATATGTAAATCGGTTGCAGTAATGCTATTCCAATAAAAGATGAAAGATTTCCGTTAATTCATTGAAAGAAACGTTCTGCTGCA (double strand) [celT EMSA fragment]”, in data set [2], the binding result was “no binding”.
The same measure, in the same setting: the result for “TGTTATCTTCGGTTAGCTCATCAAGGTAATCATAGAATATATTATAAAGAGTAACAAAGTAAATAAACTCAGGTGTATTTTCTTTATATAGAATTCTCATTTGCTCAAGAACTTTATCTTTAACATCCTGAACAGCAGTATCATCCTCCCA (double strand) [random control DNA fragment]” reads “no binding”.
On to celC EMSA fragment, for which the binding signal with GlyR3 [3] (setting [6]) amounted to 82 % shifted; with GlyR3 [3] (setting [7]), 67 % shifted; with GlyR3 [3] (387 nM GlyR3, no laminaribiose), 99 % shifted.
Take manB EMSA fragment: the binding signal was 18 % shifted in the data set with GlyR3 [3] (setting [6]); 19 % shifted with GlyR3 [3] (setting [7]); 18 % shifted with GlyR3 [3] (387 nM GlyR3, no laminaribiose).

B1: celC 18-mer competitor (dsDNA)
DNA 1: AATGAACGCGCGTACATT
DNA 2: AATGTACGCGCGTTCATT
Take B1: the binding result with GlyR3 [4] is listed as “binds”.

B2: manB 18-mer competitor (dsDNA)
DNA 1: AATGTAAACGGTGTCAAT
DNA 2: ATTGACACCGTTTACATT
As for B2, in the data set with GlyR3 [5], the binding result was “binds”.
